# In EP2918281A1 (Max-Planck-Gesellschaft zur Förderung der Wissenschaften …, dated 2015):
# B1: inhibitor 04 (other, not shown: small tags and cut ends)
# chain: KMEGKSMLKLSHVLAFLLLASLFQSLMARDLISDGIEVLQLPVENEGESVFCPGKLSWPELVGMPAGYAKAIIEKENSIVHDVRLLLPGMVKPANYVCGRVFLVVDLKLIVQIPPSMG
# Target: HIV-1 protease (EC 3.4.23.16) (HIV-1)
# Test: cell-based or functional assay
binder,measurement,value
B1,IC50 (enzyme inhibition),670 nM
